Experiment [1] addresses T1, full-length beta-Catenin (Uniprot ID P35222) (Homo sapiens (Human), UniProt P35222 1-781).
T1 construct: the AlphaScreen used a Histidine (Nickel Chelate) detection kit, so a His tag is likely but not described; also called B-Catenin; bCat
T1 sequence: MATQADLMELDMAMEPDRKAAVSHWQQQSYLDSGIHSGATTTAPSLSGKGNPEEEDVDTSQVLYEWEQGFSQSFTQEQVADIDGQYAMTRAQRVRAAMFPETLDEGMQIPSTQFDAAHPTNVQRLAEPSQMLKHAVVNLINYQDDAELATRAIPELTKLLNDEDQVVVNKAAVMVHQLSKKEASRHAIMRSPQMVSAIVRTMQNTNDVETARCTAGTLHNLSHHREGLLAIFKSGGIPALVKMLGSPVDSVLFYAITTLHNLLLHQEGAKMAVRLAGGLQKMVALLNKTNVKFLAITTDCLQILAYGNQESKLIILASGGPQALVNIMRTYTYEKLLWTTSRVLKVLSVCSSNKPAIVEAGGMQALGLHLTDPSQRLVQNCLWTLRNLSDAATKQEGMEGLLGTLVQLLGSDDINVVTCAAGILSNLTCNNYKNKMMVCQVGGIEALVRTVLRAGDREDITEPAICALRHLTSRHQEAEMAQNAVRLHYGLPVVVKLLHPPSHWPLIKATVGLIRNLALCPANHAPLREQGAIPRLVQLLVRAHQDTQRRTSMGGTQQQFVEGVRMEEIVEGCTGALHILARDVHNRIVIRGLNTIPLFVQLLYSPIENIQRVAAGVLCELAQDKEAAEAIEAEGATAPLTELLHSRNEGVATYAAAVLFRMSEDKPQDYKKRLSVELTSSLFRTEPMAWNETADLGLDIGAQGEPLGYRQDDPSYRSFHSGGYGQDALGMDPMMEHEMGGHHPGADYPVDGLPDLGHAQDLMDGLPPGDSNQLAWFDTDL
As to the kind of experiment: FP competition vs 5FAM-TCF4(10-53) probe on full-length beta-catenin. The method, then:
(§1) The plate was incubated protected from light for 60 minutes at 20° C. prior to read. Reads were performed on a CLARIOstar plate reader (BMG Labtech) in duplicate, and data were fitted to a 1:1 binding model with hill slope using an in-house script. All provided concentrations are final concentrations.

The target of experiment [2] is T2, full-length beta-Catenin (Uniprot ID P35222) (Homo sapiens (Human), UniProt P35222 2-781).
T2 construct: 'mature' is the nearest allowed form; also called bCat; B-Catenin
T2 sequence: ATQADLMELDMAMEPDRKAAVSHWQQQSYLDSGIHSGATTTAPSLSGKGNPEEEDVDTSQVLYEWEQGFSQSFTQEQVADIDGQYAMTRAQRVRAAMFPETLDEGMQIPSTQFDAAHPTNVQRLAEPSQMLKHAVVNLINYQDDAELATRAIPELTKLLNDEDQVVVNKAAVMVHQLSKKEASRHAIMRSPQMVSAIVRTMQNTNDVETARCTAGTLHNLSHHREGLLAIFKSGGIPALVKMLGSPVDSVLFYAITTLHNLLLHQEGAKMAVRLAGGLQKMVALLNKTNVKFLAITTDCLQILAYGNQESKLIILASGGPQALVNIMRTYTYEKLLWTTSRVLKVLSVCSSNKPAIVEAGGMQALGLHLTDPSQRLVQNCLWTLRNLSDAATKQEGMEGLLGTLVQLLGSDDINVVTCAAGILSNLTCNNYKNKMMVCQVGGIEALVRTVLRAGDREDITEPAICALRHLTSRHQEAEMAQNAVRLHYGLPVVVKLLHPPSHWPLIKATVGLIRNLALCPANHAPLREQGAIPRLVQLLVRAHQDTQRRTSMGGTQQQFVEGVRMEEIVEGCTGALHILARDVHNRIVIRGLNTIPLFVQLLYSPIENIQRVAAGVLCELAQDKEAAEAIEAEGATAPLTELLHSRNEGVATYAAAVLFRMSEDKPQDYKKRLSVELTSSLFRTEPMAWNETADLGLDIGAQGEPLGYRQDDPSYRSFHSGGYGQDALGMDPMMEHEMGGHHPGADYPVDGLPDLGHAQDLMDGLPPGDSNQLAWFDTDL
As to the kind of experiment: fluorescence polarization competition, full-length beta-catenin with 5FAM-TCF4(10-53) probe as competitor. The method, then: as §1

Starred links: 1 amine or outer side, 2 acyl side, 3 side chain; linkers in the order of their positions; H or OH if unused. Positions of bridges follow the written chain, without caps; N, C: chain ends. Non-standard residues stand in square brackets, D forms with d. Primed or numbered codes have the meaning given here. B5(11) = 2,2-bis(4-pentenyl)glycine = 2-amino-2-(pent-4-en-1-yl)hept-6-enoic acid (stitching residue, bears both staples), C=CCCCC(CCCC=C)(N[*:1])C(=O)[*:2]; B5(16) = 2-amino-2-(pent-4-en-1-yl)hept-6-enoic acid = 2,2-bis(4-pentenyl)glycine (stitching residue), C=CCCCC(CCCC=C)(N[*:1])C(=O)[*:2]; B5(4) = 2,2-bis(4-pentenyl)glycine = 2-amino-2-(pent-4-en-1-yl)hept-6-enoic acid (stitching residue), C=CCCCC(CCCC=C)(N[*:1])C(=O)[*:2]; B5(9) = 2-amino-2-(pent-4-en-1-yl)hept-6-enoic acid (2,2-bis(4-pentenyl)glycine), C=CCCCC(CCCC=C)(N[*:1])C(=O)[*:2]; B5(19) = 2-amino-2-(pent-4-en-1-yl)hept-6-enoic acid (bis(4-pentenyl)glycine), C=CCCCC(CCCC=C)(N[*:1])C(=O)[*:2]; d(βAsp) = O=C(O)[C@@H](CC(=O)[*:2])N[*:1]; Phe(3-Cl) = N[C@@H](Cc1cccc(Cl)c1)C(=O)O; Phe(4-NH2) = Nc1ccc(C[C@H](N)C(=O)O)cc1; Ala(2-furyl) = N[C@@H](Cc1ccco1)C(=O)O; Bta = N[C@@H](Cc1csc2ccccc12)C(=O)O; αAllylPro = C=CC[C@@]1(C(=O)O)CCCN1; S8 = C=CCCCCCC[C@](C)(N)C(=O)O

B1: I-322 (peptide)
peptide: Ac-[αAllylPro]DA[B5(11)]DDAA[Phe(4-NH2)]V[S8]FWQ-NH2
modifications: staple 1-4, 4-11; not fully specified; printed as Ac-PL3-Asp-Ala-B5-Asp-Asp-Ala-Ala-4AmPhe-Val-S8-Phe-Trp-Gln-NH2
notes: Ac-PL3-Asp-Ala-B5-Asp-Asp-Ala-Ala-4AmPhe-Val-S8-Phe-Trp-Gln-NH2; stapled peptide composition
B1 displayed a half-maximal effective concentration (EC50) in experiment [1] of 5000 nM. That is a single-digit micromolar value.

B2: I-328 (peptide)
peptide: Ac-[αAllylPro]DA[B5(4)]DDAA[Ala(2-furyl)]V[S8]FWQ-NH2
modifications: staple 1-4, 4-11; not fully specified; printed as Ac-PL3-Asp-Ala-B5-Asp-Asp-Ala-Ala-2FurA-Val-S8-Phe-Trp-Gln-NH2
notes: Ac-PL3-Asp-Ala-B5-Asp-Asp-Ala-Ala-2FurA-Val-S8-Phe-Trp-Gln-NH2; stapled peptide composition
In experiment [1], B2 yielded a half-maximal effective concentration (EC50) of 1910 nM.

B3: I-323 (peptide)
peptide: Ac-[αAllylPro]DA[B5(11)]DDAA[Phe(4-NH2)]V[S8]FWQ-NH2
modifications: staple 1-4, 4-11; not fully specified; printed as Ac-PL3-Asp-Ala-B5-Asp-Asp-Ala-Ala-4AmPhe-Val-S8-Phe-Trp-Gln-NH2
notes: as for B1
Consider B3, for which, in experiment [1], the midpoint of the response, the EC50, lay at 3470 nM.

B4: I-307 (peptide)
peptide: Ac-[αAllylPro]DA[B5(4)]DDAA[Phe(3-Cl)]V[S8]FWQ-NH2
modifications: staple 1-4, 4-11; not fully specified; printed as Ac-PL3-Asp-Ala-B5-Asp-Asp-Ala-Ala-3C1F-Val-S8-Phe-Trp-Gln-NH2
notes: Ac-PL3-Asp-Ala-B5-Asp-Asp-Ala-Ala-3C1F-Val-S8-Phe-Trp-Gln-NH2; stapled peptide composition
In experiment [1], B4 displayed a 50% effective concentration (EC50) of 4200 nM. This EC50 and that of the molecule before are within 1.5-fold of each other.

B5: I-668 (peptide)
peptide: Ac-[αAllylPro][d(βAsp)]I[B5(9)]DEAAFQ[S8]F[Bta]Q-NH2
modifications: staple 1-4, 4-11
notes: Stapled peptide composition; earlier-eluting HPLC peak (staple isomer)
Take B5: the concentration giving a half-maximal response (EC50) in experiment [2] was determined as 675 nM.

B6: I-652 (peptide)
peptide: Ac-[αAllylPro]DI[B5(16)]DESAFQ[S8]F[Bta]Q-NH2
modifications: staple 1-4, 4-11
notes: Stapled peptide composition; later-eluting HPLC peak (staple isomer)
Molecule B6 had an EC50 in experiment [2] of 72 nM.

B7: I-660 (peptide)
peptide: Ac-[αAllylPro]DI[B5(19)]DEAFFQ[S8]F[Bta]Q-NH2
modifications: staple 1-4, 4-11
notes: Stapled peptide composition
B7 yielded an EC50 in experiment [2] of 544 nM.

B8: I-646 (peptide)
peptide: Ac-[αAllylPro]DI[B5(9)]DEAAFQ[S8]F[Bta]V-NH2
modifications: staple 1-4, 4-11
notes: as for B6
In turn, B8 came in with a concentration for a half-maximal effect (EC50) in experiment [2] of 461 nM.

B9: I-648 (peptide)
peptide: Ac-[αAllylPro]DI[B5(9)]DELAFQ[S8]F[Bta]Q-NH2
modifications: staple 1-4, 4-11
notes: as for B6
The molecule B9 had a half-maximal effective concentration (EC50) in experiment [2] of 233 nM. This EC50 lies about 2-fold lower than the previous one.

B10: I-663 (peptide)
peptide: Ac-[αAllylPro]DI[B5(19)]DEAQFQ[S8]F[Bta]Q-NH2
modifications: staple 1-4, 4-11
notes: Stapled peptide composition
Molecule B10 returned a half-maximal effective concentration (EC50) in experiment [2] of 43 nM.

B11: I-661 (peptide)
peptide: XDIXDEASFQXFXQ
modifications: not fully specified; As printed: Ac-PL3-Asp-Ile-B5-Asp-Glu-Ala-Ser-Phe-Gln-S8-Phe-BztA-Gln-NH2; N-terminal Ac; PL3 at 1, B5 at 4, S8 at 11 (stapled 1-4 and 4-11); BztA at 13; C-terminal NH2
notes: as for B5
Regarding B11, the EC50 in experiment [2] amounted to 45 nM.

B12: I-662 (peptide)
peptide: XDIXDEASFQXFXQ
modifications: not fully specified; As printed: Ac-PL3-Asp-Ile-B5-Asp-Glu-Ala-Ser-Phe-Gln-S8-Phe-BztA-Gln-NH2; N-terminal Ac; PL3 at 1, B5 at 4, S8 at 11 (stapled 1-4 and 4-11); BztA at 13; C-terminal NH2
notes: as for B6
B12: in experiment [2], the EC50 was 26 nM.

B13: I-649 (peptide)
peptide: Ac-[αAllylPro]DI[B5(9)]DEFAFQ[S8]F[Bta]Q-NH2
modifications: staple 1-4, 4-11
notes: as for B5
For B13, in experiment [2], the concentration for a half-maximal effect (EC50) came to 209 nM.

B14: I-659 (peptide)
peptide: XDIXDEALFQXFXQ
modifications: not fully specified; As printed: Ac-PL3-Asp-Ile-B5-Asp-Glu-Ala-Leu-Phe-Gln-S8-Phe-BztA-Gln-NH2; N-terminal Ac; PL3 at 1, B5 at 4, S8 at 11 (stapled 1-4 and 4-11); BztA at 13; C-terminal NH2
notes: as for B6
For the molecule B14, the EC50 in experiment [2] was 430 nM. Against the preceding molecule, the EC50 is about 2.1-fold higher.
